These results are taken from patent publication US20060263345A1, “Butyrylcholinesterase variant polypeptides with increased catalytic efficiency and methods of use” (priority 2003, published 2006).

Where two headings read alike, the source gives them in different places.

Series [1] concerns cocaine toxicity. Particulars: rat, infusion of cocaine at 1 mg/kg/min, catecholamine levels standardized; cited from earlier work.
Series [2] concerns Sprague Dawley rats. As to the kind of experiment: pilot studies, lethal dose of infused cocaine. Particulars: rat, i.v. infusion. As to the method: Briefly, unilateral/bilateral jugular cannulations were performed under isoflurane anesthesia (max. 20 min) on 350 g male :Sprague Dawley®SD® rats (Harlan Sprague Dawley, Inc.) The animals were allowed to recover for 24 hours before studies commenced. […] One minute later, the cannula was connected to an infusion pump (Harvard Apparatus) and cocaine (HCI salt) was infused at 6 mls/hr (2 mg/kg/min) for 15 minutes corresponding to a total dose equal to 30 mg/kg. The time-to-onset for slight convulsions, strong convulsions and death were recorded. […] In a second series of studies, 0.5 mg/kg of the A328W/Y332M/S287G/F227A variant was administered at various time points after initiation of the 30mglkg cocaine infusion and gross observations recorded.

Series [3] is described as follows: Km for cocaine hydrolysis by horse butyrylcholinesterase, isotope tracer assay, Lineweaver-Burk plot. Type of series: biochemical. Particulars: 2 hour incubation at 37° C.; x intercept = -1/Km. The source says: At the conclusion of the isotope tracer assay, an aliquot of the reaction mix is acidified in order to take advantage of the solubility difference between the product and the substrate at pH 3.0. […] Prospect, Ill.) while [3H]-cocaine is not.

The conditions of series [4]: read-out: Km for cocaine hydrolysis, previously published, cited from earlier work.
For series [5] the following is noted: cited from earlier work.

As for `COC(=O)[C@H]1[C@@H](OC(=O)c2ccccc2)C[C@@H]2CC[C@H]1N2C` [cocaine], in series [1], the LD50 is reported as 10 mg/kg and the LD90 is on record as 16 mg/kg. Also, the “lethal dose of cocaine” value in series [2] is reported as “approximately 25 mg/kg”.

With horse butyrylcholinesterase, the figures for the Michaelis constant (Km) in series [3], in series [4] (Gatley 1991) and in series [4] (Xie et al. 1999) were roughly 37.6 µM, 38 µM and 45 ± 5 µM, respectively.

B1: A328Y (protein, UniProt P06276 29-602, looked up, variant A328Y)
Cholinesterase: EDDIIIATKNGKVRGMNLTVFGGTVTAFLGIPYAQPPLGRLRFKKPQSLTKWSDIWNATKYANSCCQNIDQSFPGFHGSEMWNPNTDLSEDCLYLNVWIPAPKPKNATVLIWIYGGGFQTGTSSLHVYDGKFLARVERVIVVSMNYRVGALGFLALPGNPEAPGNMGLFDQQLALQWVQKNIAAFGGNPKSVTLFGESAGAASVSLHLLSPGSHSLFTRAILQSGSFNAPWAVTSLYEARNRTLNLAKLTGCSRENETEIIKCLRNKDPQEILLNEAFVVPYGTPLSVNFGPTVDGDFLTDMPDILLELGQFKKTQILVGVNKDEGTYFLVYGAPGFSKDNNSIITRKEFQEGLKIFFPGVSEFGKESILFHYTDWVDDQRPENYREALGDVVGDYNFICPALEFTKKFSEWGNNAFFYYFEHRSSKLPWPEWMGVMHGYEIEFVFGLPLERRDNYTKAEEILSRSIVKRWANFAKYGNPNETQNNSTSWPVFKSTEQKYLTLNTESTRIMTKLRAQQCRFWTSFFPKVLEMTGNIDEAEWEWKAGFHRWNNYMMDWKNQFNDYTSKKESCVGL
On to B1, for which, in series [5] (Xie et al. 1999), the “increase in cocaine hydrolysis activity compared to human butyrylcholinesterase” value was “four”. The “cocaine hydrolysis activity (in words)” value in series [5] (recombinantly prepared mutations tested previously) is on record as “increased cocaine hydrolysis activity”.
